According to paper PMC11984302:

Key:
Conditions in all cases: SICS: thrombin in 1 M KCl (or 150 mM KCl), pH 7.5, 30 min incubation, 300 mV; gel: 16% Tris-Glycine; temperature not stated
[1] = biological target: T1, thrombin (human plasma, Sigma-Aldrich) (Homo sapiens) (UniProt P00734+P00734); test: free translocation nanopore
[2] = biological target: T1, thrombin (human plasma, Sigma-Aldrich) (Homo sapiens); test: single-molecule SICS nanopore
[3] = biological target: T1, thrombin (human plasma, Sigma-Aldrich) (Homo sapiens); test: single-molecule SICS nanopore; remark: listed apart in the source

TCAGCTTGCGGAGATGCGATGGTTGGTGTGGTTGGATCGAGAAAAAGGTACGCCC / GGGCGTACCTTTTTCTCGATATCGCATCTCCGCAAGCTGA [extended TBA 1 in single-gap DNA carrier]
binding signal (% events with thrombin bound) [1]: 14.1
binding signal (% carriers with thrombin bound) [2]: > 30
binding signal (% carriers with thrombin bound) [3]: 52
